Data on 40 sequences can be found in the nanobody polyreactivity screen of Harvey et al. (2022).

This series can be described thus: yeast display, Sf9 membrane polyspecificity reagent, FACS + sequencing; frameworks hold sequencing errors. The essentials:
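Synthetic nanobody libraries on Saccharomyces cerevisiae BJ5465 were galactose-induced for 36–48 hours, stained 1 hour at 4 °C with 10% biotinylated, detergent-solubilized Sf9 membrane reagent and enriched on streptavidin microbeads. FACS then separated cells into low and high (top ~1%) gates by anti-HA (expression) and streptavidin (reagent binding) fluorescence. Genes were colony-PCR amplified, MiSeq 2 × 250 sequenced and CDR-length filtered. A clone's polyreactivity label is that of its gate of origin.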
With “QVQLVESGGGLVQAGVSLRLSCAASGITFNHYTMGWYRQAPGKERELVAAISSRGSTTYYADSVKGRFTISRDNAKNTVYLQMNSLKPEDTAVYYCAAVYYLYSAWRYDYWGQGTQVTVSS”, the “polyreactivity (PSR sort gate)” value is recorded as “high polyreactivity”.

As to “QVQLQESGGGLMQAGGSQRLSCAESGSISYYSDMGWYRQAPGKEREFVAGIGYGTTTNYADSVKGRFTTSRDNAKNTVYLQMISMKPEDTAVYSCAAYQGNGYEFYYWGQGTQVTVRS”, the “polyreactivity (PSR sort gate)” value was “low polyreactivity”.

Consider “QVQLVESGGGLVQAGGSLRLSCAASGSILDTNAMGWYRQAPGKERELVARIDIDGSTNYADSVKGRFTISRDNAKNTVYLQMNSLKPEDTAVYYCAADAERHAPKFTYGTYDYWGQGTQVTVSS”, for which the “polyreactivity (PSR sort gate)” value was “low polyreactivity”.

With “QVQLVESGGGLVQAGGSLRLSCAASGRIFPVYAMGWYRQAPGKERELVAAITSGVSTNYADSVKGRFTISRDNAKYTVYLQMNSLKPEDTAVYYCNKDYTTYPYYEYGYWGQGTQVTVSS”, the “polyreactivity (PSR sort gate)” value is “low polyreactivity”.

Turning to “QVQLVETGGGLVQAGGSLRLSCAASGSILYYKPMGWYRQAPGKERELVASISLTGGSTTYADSVKGRFTISRDNAKNTVYLQMNSLKPEDTAVYYCNATQYPAADRSTNNYGGGFDSWGQGTQVTVSS”, the “polyreactivity (PSR sort gate)” value is listed as “low polyreactivity”.

For the sequence “QVQLVESGGGLVQAGGSLRLSCAASGRIFSLNAMGWYRQAPGKERELVAGIRKRGGSTYYADSVKGRFTISRDNAKNTVYLQMNSLKPEDTAVYYCAARFYYGPGGYTMYYWGQGTQVTVSS”, the “polyreactivity (PSR sort gate)” value is on record as “high polyreactivity”.

“QVQLVESGGGLVQAGGSLRLSCAASGRTFVQYVMGWYRQAPGKERELVARISSGGSTFYADSVKGRFTISRDNAKNSVYLQLNSLKPEDTAVYYCAAQWTRYRRRPMDYWGQGTQVTVSS”: the “polyreactivity (PSR sort gate)” value is “high polyreactivity”.

With “QVQLVESGGGLVQAGGSLRLSCAASGRTFMKNTMGWYIQAPGKERELVAVITRNGDSTYADSVKGRFTISRDNAKNTVYLQKNSLKPEDTAVFYCNVGSYRYRRYDYWGQGTQVTVSS”, the “polyreactivity (PSR sort gate)” value is “high polyreactivity”.

For the sequence “QVQLVESGGGLVQAGGSLRLSCAASGFIFKHYAMGWYRPAPGKERELVAAITRSGGRTYYADSVKGRFTISRDYAKNTVYLQMNSLKPEDTAVYYCNVDGKKRHYRHYYLSAYDYWGQGTQVTVSS”, the “polyreactivity (PSR sort gate)” value was “high polyreactivity”.

With “QVQLQESGGGLVQAGGSLRLSCAASGTISPLPAMGWYRQAPGKEREFVAGIDTGAITNYADSVKGRFTISRDNAKNTVYLQMNSLKPEDTAVYYCAVFQAAYDYYERYYTYWGQGTQVTVSS”, the “polyreactivity (PSR sort gate)” value is listed as “low polyreactivity”.

With “QDQIVESGGGLVQAGGSLRLSCASYGSTFDRYAMGWYRQAQGKERELVAVITQSGSSTYYADSVKGRFTISRDNAKNTVYLQMKSLKPEDTAVYYCAARYQGSRGQEYYYWGQGTQVTVSS”, the “polyreactivity (PSR sort gate)” value is recorded as “high polyreactivity”.

Regarding “QVQLVESGGGLVQAGGSLRISCAASGFTFSRNVMGWYRQAPGKERELVADITLSGASTYYADSVKGRFTISRDNAKNTVYLQMNSLNPEDTAGYYCAADPYLWRWGWRHDYWGQGTQVTVSS”, the “polyreactivity (PSR sort gate)” value is reported as “low polyreactivity”.

Turning to “QVQLVESGGGLVQAGGSLRLSCAASGRIFYNAMGWYRQAPGKERELVAAITSNGGSTYYADSVKGRFTISRDNAKNTVYLQMNSLKPEDTAVYYCNAAIRYTASATHAFDYWGQGTQVTVSS”, the “polyreactivity (PSR sort gate)” value was “low polyreactivity”.

In the case of “QVQLVESGGGIVQAGGSLRLSCAASGFTISRYAMGWDRPAPGKERELVAAITGSGGSTYYADSVKGRFTISRDIAKNTVYLQMNSLKPEDTAVYYCNTMKHYKREYDYWGQGSQVTVSS”, the “polyreactivity (PSR sort gate)” value is recorded as “high polyreactivity”.

Take “QVQLVESGGGLVQAGGSLRLSCAASGSIFRTYVMGWYRQAPGKERELVAAITASGGRTYYADSVKGRFTISRDNAKNSVYLQMNSLKPEDTAVYYCAAVSRGRYADSFDHWGQGTQVTVSS”: the “polyreactivity (PSR sort gate)” value is recorded as “high polyreactivity”.

With “QVQLVESGGGIVQAGVSLRLISAASGRIFRINAMGWYRQAPGKERDLVADITSGGSTNYADSVKGRFTISRDNAKITVYLQMNSLKPEDTAVYFCAPGYVTYRTRLDYWGQGTQVTVSS”, the “polyreactivity (PSR sort gate)” value was “low polyreactivity”.

“QVHLVESGGGLVQAGGSLRLSCAASGRIFAYYTMGWNRQAPGKERELVARITKNGGSTYYAESVKGRFTISRDNAKNTVYLQMNSLKPEDTAVYYCNADSGYTGRRTRERYYYWGQGTQVTVSS”: the “polyreactivity (PSR sort gate)” value is listed as “high polyreactivity”.

With “QVQLVESGGGLVQAGGSLRLSCAAAGSTFSYYTMGWYRQAPGKERELVAAITRSGGRTYYADSVKGRFTISRDNAKYTVYLQMNSLKPEDTAVYYCAREYYPDWGQGTQVTVSS”, the “polyreactivity (PSR sort gate)” value was “high polyreactivity”.

With “QVQLVESGGGLVQAGGSLRLSCDASGRTFGQNAMGWYRQAPGKERELVAGIDWSCGNTYYADSVKGRFTISRDNAKNTVYLQMNSLKPEDTAVYYCNTEGGRDTDWYDYWGQGTQVTVSS”, the “polyreactivity (PSR sort gate)” value is “low polyreactivity”.

As for “QVQLVESGGGLVQAGGSLRLSCAASGRTFYKYAMGWYRQAPGKEREFVADISSRGGSTYYADSVKGRFTISRDNAKNTVYLQMNSLKPEDTAVYYCAARPRPRSANGMYYWGQGTQVTVSS”, the “polyreactivity (PSR sort gate)” value is reported as “high polyreactivity”.

On to “QVQLVESGGGLVQAGGSLRLSCAASGSTFVKYAMGWYRQAPGKERELVAAISGYSGRTYYADSVKGRFTISRDNAKNTVYLQMNSLKPEDTAVYYCAAEWDDGRSWYWYYLVGFEYWGQGTQVTVSS”, for which the “polyreactivity (PSR sort gate)” value is “high polyreactivity”.

Consider “QVQLVESGVGLVQAGGTLRLSCAASGSIFDPYAMGWYRQAPGKERELVAAITYSVGGTTYYADSVKGRFTISRDNAKNTVYLQMNSLKPEDTAVYYCAAEWWGNPFDYWGQGTQVTVST”, for which the “polyreactivity (PSR sort gate)” value is reported as “high polyreactivity”.

Take “QVQLVESGGGLVQAGGSLRLSCAASGLIFSCNAMGWYRQAPGKERELVASISYSGGRTYYADSVKGRFTISRDNAKNTVYLQMNSLKPEDTAVYYCAADTNATTDPEMDYWGQGTQVTVSS”: the “polyreactivity (PSR sort gate)” value is “low polyreactivity”.

With “QVQLVESGGGLVQARGSLRLSCAASGSIIDYYAMGWYRQAPGKERELVAAINISGGDTYYADSVKGRFTISRDNAKNTVYLQMNSLKPEDTAVYYCNADRFYIDYSNTYDSIRDYWGQGTQVSVSS”, the “polyreactivity (PSR sort gate)” value is “low polyreactivity”.

Consider “QVQLVESGGGIVQAGGSLRLSSAASGRIFPYYAMGWYRQSPGKERELVAAINWRGTRTYADSVKWRFTISRDNAKYTVYFQMTSLNPEDTAVYYCAARTLYFSKYDYWGLGTQVTVSS”, for which the “polyreactivity (PSR sort gate)” value is “high polyreactivity”.

For “QVQLVESGGGLVQAGGSFRLSCAASGSIFVVYDMGCYRQAPGKERELVAAITSGGSTYYADSVKGRFTISRDNAKNTVYLQMNSLKPEDTAVYYCAADSYEGYDYWGQGTQVTVSS”, the “polyreactivity (PSR sort gate)” value was “low polyreactivity”.

“QLQLVESGGGLVQAGGSLRLSCAPSGRIFAPYAMGWYIPAPVKERELVAAIRLSGGSTYYADSVKGRFTISRDNAKNTVYLKMNSLKPEDTEVYYCAARYPGVARFYYWGQATQVTVSS”: the “polyreactivity (PSR sort gate)” value is “high polyreactivity”.

“QVQLVESGGGLVQAGGSLRLSCAASGSIFVSYAMGWYRQAPGKERELVAAIRRGGTSTYYEDSVKGRFTISRDNAKNTVYLQMNSLKPEDTAVYYCAAPRYFTRYRPLGIYDYWGQGTQVTVSS”: the “polyreactivity (PSR sort gate)” value is given as “high polyreactivity”.

For “QVQLVESGGGLVQAGGSLRLSCAASGRTFQYYAMGWYRPAPGKERELVAALSSRGGSTYYADSVKGRFTISRDNAKNTVSLQMNSLKPEDTAVYYCAAYVLPRQRVRSDYWGQGTQVTVTS”, the “polyreactivity (PSR sort gate)” value is “high polyreactivity”.

Take “QVQLVESGGGIVQAGGSLRLSCAASGFIISYNAMVWYRQAPGKERELVAAISSRGGSTYYADSVKGRFTISRDNAKNTVYLQMNSLKPEDTAVYYCAVASRRVYTAPYDYWGQGTQVSVSS”: the “polyreactivity (PSR sort gate)” value was “high polyreactivity”.

Take “QVQLVETGGGLVQAGGSLRLSCAASGSISGFIDMGWYRQAPGKERELVAAISYSGGRTYYADSVKGLFTISRDNAKNTVFLQMNSLKPEDTAVYYCAADKFIYSKYTVIRDDYWGQGTQVTVSS”: the “polyreactivity (PSR sort gate)” value is “high polyreactivity”.

With “QVQLVESGGGLVKAGGSLLLSCAASGIIFRRNAMGRNIQAPGKERELVAAISSSKGRTYYADSVKGRFTISRDNAKNTVYLQMNSLKPEDTAVYYCTADYDASARGWGQIAYVYWGQGTQVTVSS”, the “polyreactivity (PSR sort gate)” value is “low polyreactivity”.

For the sequence “QVQLVESGGGLVQAGGSLRLSCAASGSIFYRNAMGWSRQAPGKERELVAAISASGGSTYYADSVKGRFTISRDNAKNTVYLQMNSLKPEDTAVYYCAVEYRKSRSYAPMGYWGQGTQVTVSS”, the “polyreactivity (PSR sort gate)” value is listed as “high polyreactivity”.

“QVQLVESGGGLVQAGGSLRLSCAASGSTFVKNDMGWYRQAPGKERELVAANSGGSTNYADSVTGRFTISRDNAKNTVYLQMNSLKPEDTAVYYCNAAVITKYAGRGGRPTGRMYYWGQGTQVTVSS”: the “polyreactivity (PSR sort gate)” value is reported as “low polyreactivity”.

Regarding “QVQLVESGGGLVQAGGSLRLSCAASRLIFRGNDMGWYRQAPGKERELLAGINSSGSTNYADSVKGRFTISRDNAKNTVYLHMNSLKPEDTAVYYCAARAIVSFDYWGQGTQVTVSS”, the “polyreactivity (PSR sort gate)” value is given as “low polyreactivity”.

“QVQLLESGGGLVQAGGSLRLSCAASGSIFDYNAMGWYRQAPGNERELVADITISDDSTYYADSVKGRFTISRDNAKNTVNLQMNSRQPEDTAVYYCAADIKYYWYYYYWAYAYDYWGQGTQVTVSS”: the “polyreactivity (PSR sort gate)” value is on record as “high polyreactivity”.

On to “QVQLVESGGGLVQAGASLRLSCAASGSTLSYAMGWYRQAPGKERELVAAISRSGGSTYYADSVKGRFTISRDNAKNTVYLLMNSLKPEDTAVYYCAADPYPSYANGGYYWGQGTQVTVSS”, for which the “polyreactivity (PSR sort gate)” value is listed as “low polyreactivity”.

As for “QVQLQESGGGPVLAGGSLRLSCAASGTIFVRLDMGWYRQAPGKEREFVATIGSASSTYYADSVKGSFTISRDNVKNTVYLQMNSLKPEDTAVYYCAVSAAEQSRHYYWDQGTQVTVSS”, the “polyreactivity (PSR sort gate)” value was “low polyreactivity”.

“QVQLVESGGGLVQAGGSLRLSCAASGRIFEPYAMGWYRQAPGKERELVAAITSGGSTDYADSVKGRFTISRDNAKNTVYLQMNSLKPEDTAVYYCAAETVWRLDYWGQGTQVTVSS”: the “polyreactivity (PSR sort gate)” value was “low polyreactivity”.

As for “QDQLVESGGGLDQAGGSLRLSCAASGSTFQLYAMGWYRQAPGKERELVAAISGIGDSTYYADSVKGRFTISRDNAKNTVYLQMNSLKPEDTAVYYCDREFSDGLSGKFDYWGQGTQVTVSS”, the “polyreactivity (PSR sort gate)” value is on record as “low polyreactivity”.
